Results reported in patent publication US20230295324A1.

Tests used:
[1] = target: human OX40 on cells (CHO-K1/hu OX40) (human) (UniProt P43489); assay: cell-based or functional assay
[2] = target: human OX40 on cells (CHO-K1/hu OX40) (human) (UniProt P43489); assay: FACS, CHO-K1/hu OX40 cells
[3] = target: human OX40 on cells (CHO-K1/hu OX40) (human) (UniProt P43489); assay: FACS, blocking of biotin-human OX40L on CHO-K1/hu OX40 cells

human OX40 on cells (CHO-K1/hu OX40) (human), sequence (P43489 29-277): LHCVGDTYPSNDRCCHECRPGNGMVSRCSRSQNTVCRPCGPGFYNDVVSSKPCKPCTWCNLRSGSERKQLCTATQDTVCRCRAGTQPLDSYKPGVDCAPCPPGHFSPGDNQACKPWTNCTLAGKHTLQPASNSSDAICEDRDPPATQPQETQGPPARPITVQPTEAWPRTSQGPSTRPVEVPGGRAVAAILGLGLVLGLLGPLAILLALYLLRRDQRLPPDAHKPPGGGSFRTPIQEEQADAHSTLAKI

B1: PR002075 (antibody, human IgG1, V domains shown)
VH: EVQLVETGGGLIQPGGSLRLSCAASGFTFSSYAMSWVRQAPGKGLEWVSAISGSGGNTYYADSVRGRFTISRDNSKNTLYLQMNSLRAEDTAVYYCANGITGTTDVDYWGQGTRVTVSS
With B1 the EC50, HEK293/OX40/NF-kb luciferase reporter [1] was 136 nM, the Maximum fluorescence signal value, HEK293/OX40/NF-kb luciferase reporter [1] was 140000 luminescence and the Maximum MFI [2] was 501 MFI. The Maximum inhibition rate (%) [3] was 0%.
